# B1: AMOTL2 peptide 66-81 (Angiomotin-like protein 2), 16-mer library wild type / TNKS ANK (TNKS 12 ANK repeats, residues 174-649) (parent complex)
# chain 1: LQQATRQEPQGQEHQG
# chain 2: TGVPAVSGALRELLEACRNGDVSRVKRLVDAANVNAKDMAGRKSSPLHFAAGFGRKDVVEHLLQMGANVHARDDGGLIPLHNACSFGHAEVVSLLLCQGADPNARDNWNYTPLHEAAIKGKIDVCIVLLQHGADPNIRNTDGKSALDLADPSAKAVLTGEYKKDELLEAARSGNEEKLMALLTPLNVNCHASDGRKSTPLHLAAGYNRVRIVQLLLQHGADVHAKDKGGLVPLHNACSYGHYEVTELLLKHGACVNAMDLWQFTPLHEAASKNRVEVCSLLLSHGADPTLVNCHGKSAVDMAPTPELRERLTYEFKGHSLLQAAREADLAKVKKTLALEIINFKQPQSHETALHCAVASLHPKRKQVTELLLRKGANVNEKNKDFMTPLHVAAERAHNDVMEVLHKHGAKMNALDTLGQTALHRAALAGHLQTCRLLLSYGSDPSIISLQGFTAAQMGNEAVQQILSESTPIRTSD
# Variants of: B1
# Assay: proteomic peptide phage display deep mutational scan (ProP-PD DMS): M13 P8 16-mer library selected against immobilised GST-tagged bait for four days (rounds), NGS of the eluted pools per day and pseudo-replica; bait immobilised on MaxiSorp plates (10 µg), library pre-cleared on GST, 2 h binding at 4 °C, five washes; one round per day, days 1-4; value from days 2 and 3
row,Variant,screen value
1,chain 1 LKQATRQEPQGQEHQG [chain 1 Q2K],"0.000265 average fractional NGS count over selection days 2 and 3 (reads of this peptide / all reads for the bait, averaged over …"
2,chain 1 LQQATRMEPQGQEHQG [chain 1 Q7M],"0.00184 average fractional NGS count over selection days 2 and 3 (reads of this peptide / all reads for the bait, averaged over …"
3,chain 1 LQQATRQDPQGQEHQG [chain 1 E8D],"0.000313 average fractional NGS count over selection days 2 and 3 (reads of this peptide / all reads for the bait, averaged over …"
4,chain 1 WQQATRQEPQGQEHQG [chain 1 L1W],"0.000562 average fractional NGS count over selection days 2 and 3 (reads of this peptide / all reads for the bait, averaged over …"
5,chain 1 LQGATRQEPQGQEHQG [chain 1 Q3G],"0.000192 average fractional NGS count over selection days 2 and 3 (reads of this peptide / all reads for the bait, averaged over …"
6,chain 1 LQQATRQEPQGQEMQG [chain 1 H14M],"0.000405 average fractional NGS count over selection days 2 and 3 (reads of this peptide / all reads for the bait, averaged over …"
7,chain 1 LQQATRQEPQGQEHIG [chain 1 Q15I],"0.00255 average fractional NGS count over selection days 2 and 3 (reads of this peptide / all reads for the bait, averaged over …"
8,chain 1 LYQATRQEPQGQEHQG [chain 1 Q2Y],"0.000109 average fractional NGS count over selection days 2 and 3 (reads of this peptide / all reads for the bait, averaged over …"
9,chain 1 LQQAQRQEPQGQEHQG [chain 1 T5Q],"0.00116 average fractional NGS count over selection days 2 and 3 (reads of this peptide / all reads for the bait, averaged over …"
10,chain 1 LQQATRPEPQGQEHQG [chain 1 Q7P],"0.000611 average fractional NGS count over selection days 2 and 3 (reads of this peptide / all reads for the bait, averaged over …"
11,chain 1 LLQATRQEPQGQEHQG [chain 1 Q2L],"0.00083 average fractional NGS count over selection days 2 and 3 (reads of this peptide / all reads for the bait, averaged over …"
12,chain 1 LQQATRQMPQGQEHQG [chain 1 E8M],"0.000135 average fractional NGS count over selection days 2 and 3 (reads of this peptide / all reads for the bait, averaged over …"
13,chain 1 LQQATRQEPQGMEHQG [chain 1 Q12M],"0.000359 average fractional NGS count over selection days 2 and 3 (reads of this peptide / all reads for the bait, averaged over …"
14,chain 1 QQQATRQEPQGQEHQG [chain 1 L1Q],"0.00176 average fractional NGS count over selection days 2 and 3 (reads of this peptide / all reads for the bait, averaged over …"
15,chain 1 LQQFTRQEPQGQEHQG [chain 1 A4F],"0.000957 average fractional NGS count over selection days 2 and 3 (reads of this peptide / all reads for the bait, averaged over …"
16,chain 1 LQPATRQEPQGQEHQG [chain 1 Q3P],"0.000624 average fractional NGS count over selection days 2 and 3 (reads of this peptide / all reads for the bait, averaged over …"
17,chain 1 LQQATRQEPQGQEHWG [chain 1 Q15W],"0.000288 average fractional NGS count over selection days 2 and 3 (reads of this peptide / all reads for the bait, averaged over …"
18,chain 1 LQQATRTEPQGQEHQG [chain 1 Q7T],"0.000305 average fractional NGS count over selection days 2 and 3 (reads of this peptide / all reads for the bait, averaged over …"
19,chain 1 LQQAHRQEPQGQEHQG [chain 1 T5H],"0.00114 average fractional NGS count over selection days 2 and 3 (reads of this peptide / all reads for the bait, averaged over …"

row,Variant,screen value
1,chain 1 LQQATRQEPQGQEHLG [chain 1 Q15L],"0.0017 average fractional NGS count over selection days 2 and 3 (reads of this peptide / all reads for the bait, averaged over …"
2,chain 1 LQQATRQPPQGQEHQG [chain 1 E8P],"0.00018 average fractional NGS count over selection days 2 and 3 (reads of this peptide / all reads for the bait, averaged over …"
3,chain 1 LQQATRQTPQGQEHQG [chain 1 E8T],"0.00026 average fractional NGS count over selection days 2 and 3 (reads of this peptide / all reads for the bait, averaged over …"
4,chain 1 LQQAGRQEPQGQEHQG [chain 1 T5G],"0.000124 average fractional NGS count over selection days 2 and 3 (reads of this peptide / all reads for the bait, averaged over …"
5,chain 1 YQQATRQEPQGQEHQG [chain 1 L1Y],"0.000392 average fractional NGS count over selection days 2 and 3 (reads of this peptide / all reads for the bait, averaged over …"
6,chain 1 LIQATRQEPQGQEHQG [chain 1 Q2I],"0.000122 average fractional NGS count over selection days 2 and 3 (reads of this peptide / all reads for the bait, averaged over …"
7,chain 1 LQQWTRQEPQGQEHQG [chain 1 A4W],"0.000419 average fractional NGS count over selection days 2 and 3 (reads of this peptide / all reads for the bait, averaged over …"
8,chain 1 LQQATRQEPQGQEHVG [chain 1 Q15V],"0.000269 average fractional NGS count over selection days 2 and 3 (reads of this peptide / all reads for the bait, averaged over …"
9,chain 1 LQQATRQVPQGQEHQG [chain 1 E8V],"0.000436 average fractional NGS count over selection days 2 and 3 (reads of this peptide / all reads for the bait, averaged over …"
10,chain 1 LQQAVRQEPQGQEHQG [chain 1 T5V],"0.00996 average fractional NGS count over selection days 2 and 3 (reads of this peptide / all reads for the bait, averaged over …"
11,chain 1 LQQATRFEPQGQEHQG [chain 1 Q7F],"0.000322 average fractional NGS count over selection days 2 and 3 (reads of this peptide / all reads for the bait, averaged over …"
12,chain 1 LQAATRQEPQGQEHQG [chain 1 Q3A],"0.0023 average fractional NGS count over selection days 2 and 3 (reads of this peptide / all reads for the bait, averaged over …"
13,chain 1 LQQATRQEPQGQLHQG [chain 1 E13L],"0.000144 average fractional NGS count over selection days 2 and 3 (reads of this peptide / all reads for the bait, averaged over …"
14,chain 1 LQQADRQEPQGQEHQG [chain 1 T5D],"0.000166 average fractional NGS count over selection days 2 and 3 (reads of this peptide / all reads for the bait, averaged over …"
15,chain 1 LQQATRAEPQGQEHQG [chain 1 Q7A],"0.000124 average fractional NGS count over selection days 2 and 3 (reads of this peptide / all reads for the bait, averaged over …"
16,chain 1 LQQDTRQEPQGQEHQG [chain 1 A4D],"0.000175 average fractional NGS count over selection days 2 and 3 (reads of this peptide / all reads for the bait, averaged over …"
17,chain 1 LQLATRQEPQGQEHQG [chain 1 Q3L],"0.000335 average fractional NGS count over selection days 2 and 3 (reads of this peptide / all reads for the bait, averaged over …"
18,chain 1 LQQALRQEPQGQEHQG [chain 1 T5L],"0.00104 average fractional NGS count over selection days 2 and 3 (reads of this peptide / all reads for the bait, averaged over …"
19,chain 1 LPQATRQEPQGQEHQG [chain 1 Q2P],"0.000458 average fractional NGS count over selection days 2 and 3 (reads of this peptide / all reads for the bait, averaged over …"

row,Variant,screen value
1,chain 1 LQQATRQLPQGQEHQG [chain 1 E8L],"0.000201 average fractional NGS count over selection days 2 and 3 (reads of this peptide / all reads for the bait, averaged over …"
2,chain 1 LQQATRQEPEGQEHQG [chain 1 Q10E],"0.000182 average fractional NGS count over selection days 2 and 3 (reads of this peptide / all reads for the bait, averaged over …"
3,chain 1 LQQATRQEPQGIEHQG [chain 1 Q12I],"9.74e-05 average fractional NGS count over selection days 2 and 3 (reads of this peptide / all reads for the bait, averaged over …"
4,chain 1 LQQATRQWPQGQEHQG [chain 1 E8W],"0.000174 average fractional NGS count over selection days 2 and 3 (reads of this peptide / all reads for the bait, averaged over …"
5,chain 1 LQQATRLEPQGQEHQG [chain 1 Q7L],"0.00305 average fractional NGS count over selection days 2 and 3 (reads of this peptide / all reads for the bait, averaged over …"
6,chain 1 LQQAFRQEPQGQEHQG [chain 1 T5F],"0.00053 average fractional NGS count over selection days 2 and 3 (reads of this peptide / all reads for the bait, averaged over …"
7,chain 1 LQQSTRQEPQGQEHQG [chain 1 A4S],"0.000138 average fractional NGS count over selection days 2 and 3 (reads of this peptide / all reads for the bait, averaged over …"
8,chain 1 LQQATRQEPQGQEHNG [chain 1 Q15N],"0.00022 average fractional NGS count over selection days 2 and 3 (reads of this peptide / all reads for the bait, averaged over …"
9,chain 1 LQQATRNEPQGQEHQG [chain 1 Q7N],"0.000208 average fractional NGS count over selection days 2 and 3 (reads of this peptide / all reads for the bait, averaged over …"
10,chain 1 LQQAYRQEPQGQEHQG [chain 1 T5Y],"0.00023 average fractional NGS count over selection days 2 and 3 (reads of this peptide / all reads for the bait, averaged over …"
11,chain 1 LQQAWRQEPQGQEHQG [chain 1 T5W],"0.000715 average fractional NGS count over selection days 2 and 3 (reads of this peptide / all reads for the bait, averaged over …"
12,chain 1 LQQATRQEPQGQAHQG [chain 1 E13A],"0.000224 average fractional NGS count over selection days 2 and 3 (reads of this peptide / all reads for the bait, averaged over …"
13,chain 1 LQQATRQEPQGQEVQG [chain 1 H14V],"0.00237 average fractional NGS count over selection days 2 and 3 (reads of this peptide / all reads for the bait, averaged over …"
14,chain 1 LQQATRQEPQGQEIQG [chain 1 H14I],"0.000314 average fractional NGS count over selection days 2 and 3 (reads of this peptide / all reads for the bait, averaged over …"
15,chain 1 LQQATRQEPQGQEHAG [chain 1 Q15A],"0.00403 average fractional NGS count over selection days 2 and 3 (reads of this peptide / all reads for the bait, averaged over …"
16,chain 1 TQQATRQEPQGQEHQG [chain 1 L1T],"0.000919 average fractional NGS count over selection days 2 and 3 (reads of this peptide / all reads for the bait, averaged over …"
17,chain 1 LVQATRQEPQGQEHQG [chain 1 Q2V],"0.000551 average fractional NGS count over selection days 2 and 3 (reads of this peptide / all reads for the bait, averaged over …"
18,chain 1 LQQATRQEPIGQEHQG [chain 1 Q10I],"0.000713 average fractional NGS count over selection days 2 and 3 (reads of this peptide / all reads for the bait, averaged over …"

# From article PMC12102759 (2025)
